Assay [1] has as its target T1, US28 of HCMV strain DB fused to a C-terminal 6His tag (human cytomegalovirus (HCMV) strain DB, UniProt P69332 1-354).
T1 chain: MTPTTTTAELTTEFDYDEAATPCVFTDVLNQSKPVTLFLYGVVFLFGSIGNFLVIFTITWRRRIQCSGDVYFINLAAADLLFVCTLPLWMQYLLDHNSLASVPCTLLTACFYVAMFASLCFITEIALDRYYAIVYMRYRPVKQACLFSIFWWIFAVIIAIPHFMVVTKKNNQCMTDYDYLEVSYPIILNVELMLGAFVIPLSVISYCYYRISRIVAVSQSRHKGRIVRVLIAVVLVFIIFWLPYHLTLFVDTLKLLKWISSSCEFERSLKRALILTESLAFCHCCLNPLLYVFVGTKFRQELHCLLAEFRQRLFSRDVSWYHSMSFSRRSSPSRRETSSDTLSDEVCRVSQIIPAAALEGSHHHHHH
Nature of the assay: flow cytometry, CHO-US28 against control CHO cells. (In flow cytometry, cells or beads pass a laser one at a time.)

The target of another assay is T2, Bio-Peptide-1 (human cytomegalovirus (4N variant, e.g. …)).
T2 construct: also called US28 ECD3 genotype 4N peptide
T2 peptide: Biotin-TKKNNQCMTDYDYLEVS
The assay can be described thus: ELISA, Bio-Peptide-1 coated. A general note: In an ELISA, binding on a coated surface is turned into a signal by an enzyme label.

Assay [2] has as its target T1, US28 of HCMV strain DB fused to a …. The assay can be described thus: flow cytometry, CHO-US28 against control CHO cells.

The text below walks through data of patent US20250296984A1 (THELPER, published 2025).

Like-named read-outs stand apart in the source and are kept apart here. Where no end group is shown, it is not given here. The star is where a group is joined. Biotin = O=C1N[C@H]2[C@H](CS[C@H]2CCCCC(=O)*)N1

B1: US28-4-4H3C3 (antibody, mouse IgG1, kappa, V domains shown)
VH: QVQLQQSGAELAKPGASVKMSCKASGYTFTSYWMHWVKQRPGQGLEWIGYINPSTGYAEYNQKFKDKATLTADKSSSTAYMQLSSLTSEDSAVYYCARLRFGSSGFAYWGQGTLVTVSS
VL: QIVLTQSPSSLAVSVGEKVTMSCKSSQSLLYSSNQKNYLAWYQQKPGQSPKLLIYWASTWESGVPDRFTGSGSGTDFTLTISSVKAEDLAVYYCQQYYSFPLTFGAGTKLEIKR
On to B1, for which, in assay [1], the “binding specificity comparative to the specificity displayed by VUN100” value (from here on “binding specificity comparative”) turned out to be 3.35 fold.

B2: US28-14-4E4-1E8 (antibody, mouse IgG1, kappa, V domains shown)
VH: EVKLVESGGDLVKPGGSLKLSCAASGFTFSSYAMSWVRQTPEKRLEWVASISSGGRTYYPDSVKGRFTISRDNARNILYLQMSSLRSEDTAIYYCARGGTRHSYGNGFDYWGQGTTLTVSS
VL: QIVLSQSPTIMSASPGEKVTMTCSASSSVSYMHWYQQKSGTSPKRWIYDSSKLASGVPARFSGSGSGTSYSLTISSMEAEDAATYYCQQWTSNPPITFGAGTKLELKR
In turn, B2 came in with an absorbance with Bio-Peptide-1 of 2.99. The “binding specificity comparative” value in assay [2] turned out to be 4.6 fold.

B3: US28-13-1C10-1G9 (antibody, mouse IgG1, kappa, V domains shown)
VH: EVKLVESGGGLVKPGGSLKLSCAASGFTFSSYAMSWVRQTPEKRLEWVASISSGGSTYYPDSVKGRFTISRDNARNILYLQMSSLRSEDTAMYYCARGGSTMITTGLGFAYWGQGTLVTVSA
VL: QIVLTQSPAIMSASPGEKVTMTCSASSSVSYMHWYQQKSGTSPKRWIYDTSKLASGVPARFSGSGSGTSYSLTISSMEAEDAATYYCQQWSSNPPLTFGAGTKLELKR
B3 gave an absorbance with Bio-Peptide-1 of 3.11.

B4: US28-13-1H3-1A10 (antibody, mouse IgG1, kappa, V domains shown)
VH: EVKLVESGGVLVKPGGSLKFSCAASGFTLSSHALSWVRQTPEKRLEWVASISSRGRTYYPDSVKGRFTVSRDNARNILYLQVSSLRSEDTAMYYCTRGGTHYSYGNGFDFWGQGTTLTVSS
VL: QIVLTQSPAIMSASPGEKVTMTCSVSSSVSYMHWYQQKSGTSPKRWIYDTSKLASGVPARFSGSGSGTSYSLTISTMEAEDAATYYCQQWSNNPPITFGAGTKLELKR
notes: also called 14-1H3-1A10
For B4, in the assay with Bio-Peptide-1, the absorbance turned out to be 3. Also, the “binding specificity comparative” value in assay [2] worked out at 2.29 fold.

B5: US28-13-1C10-1C10 (antibody, mouse IgG1, kappa, V domains shown)
VH: EVKLVESGGVLVKPGGSLKFSCAASGFTFSSHALSWVRQTPEKRLEWVASISSRGRTYYPDSVKGRFTVSRDNARNILYLQVSSLRSEDTAMYYCTRGGTHYSYGNGFDFWGQGTTLTVSS
VL: QIVLTQSPAIMSASPGEKVTMTCSVSSSVSYMHWYQQKSGTSPKRWIYDTSKLASGVPARFSGSGSGTSYSLTISTMEAEDAATYYCQQWSNNPPITFGAGTKLELKR
Molecule B5 displayed an absorbance with Bio-Peptide-1 of 3.11. Also, in assay [2], the “binding specificity comparative” value came to 1.74 fold.

B6: US28-4-2F5B11 (antibody, mouse IgG1, kappa, V domains shown)
VH: EVQLQESGAELAKPGASVKMSCKASGYTFSSYWIHWIKQRPGQGLEWIGYINPNTAYTEFNQKFMDKATLTADKSSSTAYMQLTSLTSEDSAVYYCARLRSDRTGFAYWGQGTLVTVSA
VL: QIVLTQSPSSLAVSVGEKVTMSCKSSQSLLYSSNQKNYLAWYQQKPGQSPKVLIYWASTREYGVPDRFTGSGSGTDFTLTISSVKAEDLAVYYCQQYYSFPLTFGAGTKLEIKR
In the case of B6, the “binding specificity comparative” value in assay [1] came out at 4.21 fold.

B7: US28-4-7B1F3 (antibody, mouse IgG1, kappa, V domains shown)
VH: EVQLQQSGAELAKPGASVKMSCKASGYTFTNYWMHWVKQRPGQGLEWIGYVNPRTGYTEYNQKFKDKATLTADKSSRTAYMQLSSLTSEDSAVYSCARILNGTGFAYWGQGTLVTVSA
VL: DIVLTQSPSSLTVSVGEKFTMSCKSSQSLLYSSNQKNYLAWYQQKPGQSPKLLIYWASTRESGVPDRFTGSGSGTDFTLAISSVKPEDLAIYYCQQYYSFPLTFGAGTKLEIKR
notes: also called mouse 7B1F3; mouse7B1F3
For B7, the “binding specificity comparative” value in assay [1] came out at 1.67 fold.
